Measured values published in publication PMC10037447.
Where “and” joins values, the source holds several entries; their conditions need not be identical. Equal values may be shown once.

Biological target: F-type ATP synthase from bovine heart mitochondria (Bos taurus (purified from bovine heart))
Experiment: native gel or EMSA; Blue-Native PAGE (3-12% Bis-Tris mini-gels) of F-type ATP synthase re-extracted with 0.5% LMNG from LAiR proteoliposomes (bovine heart lipids) at time points over 5 days of storage on ice at 4 °C

stoichiometry N: 2 and 4
Substance: F-type ATP synthase from bovine heart mitochondria (complex)
